B1: CRISPR-associated endonuclease Cas1 (Escherichia coli (strain K12)), Q46896 (parent)
chain: MTWLPLNPIPLKDRVSMIFLQYGQIDVIDGAFVLIDKTGIRTHIPVGSVACIMLEPGTRVSHAAVRLAAQVGTLLVWVGEAGVRVYASGQPGGARSDKLLYQAKLALDEDLRLKVVRKMFELRFGEPAPARRSVEQLRGIEGSRVRATYALLAKQYGVTWNGRRYDPKDWEKGDTINQCISAATSCLYGVTEAAILAAGYAPAIGFVHTGKPLSFVYDIADIIKFDTVVPKAFEIARRNPGEPDREVRLACRDIFRSSKTLAKLIPLIEDVLAAGEIQPPAPPEDAQPVAIPLPVSLGDAGHRSS
partner: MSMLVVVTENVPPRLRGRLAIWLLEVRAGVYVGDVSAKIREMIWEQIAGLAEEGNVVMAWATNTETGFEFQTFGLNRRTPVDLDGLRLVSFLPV

Variants of: B1
Details: with cas2_ecoli ygbF

Variant | effect of a mutation on the interaction
MTWLPLNPIPLKDRVSMIFLQYGQIDVIDGAFVLIDKTGIRTHIPVGSVACIMLEPGTRVSHAAVRLAAQVGTLLVWVGEAGVRVYASGQPGGARSDKLLYQAKLALDEDLRLKVVRKMFELRFGEPAPARRSVEQLRGIEGSRVRATYALLAKQYGVTWNGRRYDPKDWEKGDTINQCISAATSCLYGVTEAAILAAGYAPAIGFVHTGKPLSFVYDIADIIKFDTVVPKAFEIARRNPGEPDREVRLACEDIFRSSKTLAKLIPLIEDVLAAGEIQPPAPPEDAQPVAIPLPVSLGDAGHRSS [R252E] | disrupting interaction strength

Source: IntAct's records for PubMed 24793649
